In the supplement of paper PMC9732359:
± gives the uncertainty stated by the source.

Experiment: protein stability index of a GFP-peptide fusion (yeast GPS) (PSI 1-4); higher = more stable; sorted into four equal gates, so the index is relative within each strain
Details: san1∆
How it was run: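 For each peptide, the protein stability index sums the read frequency in every gate after multiplying it by the gate number. Read frequencies came from plasmids that were PCR-amplified from each gate and Illumina-sequenced, with reads assigned to strains by barcodes. The gates were four equal bins of GFP/Cherry fluorescence ratio applied to mid-log yeast in leucine-free medium carrying a pooled library of tiled 17-residue yeast protein peptides fused downstream of GFP on a Cherry-expressing plasmid.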

Sequence | protein stability index
LESINEGNQIIVFVHSR [BRR2] | 1.62 ± 0.066

Same assay, conditions: ubr1∆

Sequence | protein stability index
KREEKAMTIYWDDHTKK [CDC53] | 2.25 ± 0.051
KRFMNTSQNPQRDAEIS [BRR2] | 2.95 ± 0.059
KRGVKGVEYRLRLRISR [RPL31A] | 1.78 ± 0.19
KRHRSSYYDNDLDETTQ [YML031W/NDC1] | 2.71 ± 0.071
KRINFEKIKDIHNTKLP [POP1] | 2.54 ± 0.076
KRITQITIEPGVDVEVV [RPS20] | 2.6 ± 0.09
KRKWSYVLYAKIVVLSR [RRP43] | 2.21 ± 0.056
KRKYDEITHPPSTTDDE [SWI3] | 3.29 ± 0.082
KRKYLDIPIDEMTLPTS [SSN2] | 3.21 ± 0.23
KRQAYAVSEKAGHQTSA [RPL4A] | 2.34 ± 0.078
KRQELEEASQQQQLQQN [MED2] | 2.63 ± 0.061
KRTRLESLKNLNESRSQ [SMC3] | 2.82 ± 0.13
KRVVVPQALRVLRLKPG [RPL16A] | 2.09 ± 0.12
KSAEGNNIDQSLILKES [YAR002W/NUP60] | 3 ± 0.078
KSAVSHAPAYHRSKKDQ [IRR1] | 3.1 ± 0.069
KSDEGGSYLCTSSTPSP [YOR098C/NUP1] | 3.07 ± 0.06
KSGTSHDAIFSIYKYIH [SNF12] | 2.2 ± 0.046
KSHVLLATPVQFELLSR [BRR2] | 2.08 ± 0.049
KSIMDGIHDGHIKKLLH [FAS1] | 1.38 ± 0.024
KSIQDIVGLATLIVNTD [SRP21] | 2.97 ± 0.037
KSIRKDTVEEKKEEKLN [SIR4] | 2.76 ± 0.091
KSMELFYDIRSLLERHI [YJL039C/NUP192] | 3.07 ± 0.046
KSPSLTAQKYPIYTGDG [YMR153W/NUP53] | 2.01 ± 0.036
KSRMINFLDAPGHVNFM [SNU114] | 3.57 ± 0.28
KSSDSNDSNPSFSFSIP [YLR335W/NUP2] | 2.81 ± 0.034
KTCQWYSEHLKPYDINV [DIS3] | 2.84 ± 0.072

Sequence | protein stability index
KTIVTGGNGPEDFQQHE [RPO26] | 3.31 ± 0.039
KTKILEVAIRDVNLDVR [IRR1] | 2.48 ± 0.052
KTLIGLQGIVIWDSQKF [POP4] | 2.38 ± 0.044
KTPNRSSTPKFTKKPVT [SIR4] | 2.94 ± 0.054
KTPVFTTGGDYILSLVS [YMR129W/POM152] | 1.87 ± 0.044
KTQEYYTQYTNDYLEKH [CDC53] | 3.22 ± 0.062
KTRFKGSQFIVVSLKEG [SMC2] | 3.34 ± 0.046
KTSKDIAVLRSKEWFQL [FAS1] | 2.25 ± 0.032
KTTDHLFDAAFYMKKDA [RPO31] | 3.05 ± 0.054
KTTPNTASSEASAGSKE [YMR153W/NUP53] | 3.12 ± 0.038
KTYKEGINKNEEYRKQL [SMC1] | 2.19 ± 0.056
KTYNCLHEKYLTEGGSI [SMC1] | 2.98 ± 0.069
KVDIFEIPETGEYSVKL [FAS2] | 2.99 ± 0.049
KVFDTLTRFSHDADLEV [RPN1] | 2.67 ± 0.047
KVGEDIAKATKEFKGIK [RPL12A] | 3.17 ± 0.15
KVGQFDQVLNLCLTEFE [FAS1] | 3.11 ± 0.038
KVKLFHGILDDLETSLS [MED2] | 3.36 ± 0.055
KVLEMKNLKDTASVEKA [YIL149C/MLP2] | 3.21 ± 0.08
KVNPNIMNMIENVEKKE [SMC2] | 2.5 ± 0.064
KVSSLKMFIQRILAMCV [YCS4] | 2.88 ± 0.057
KVVGPRGTLTKNLKHID [RPL9A] | 2.35 ± 0.052
KWAGIKTRKFVFNPPKP [CYT1] | 2.95 ± 0.15
KWEQTYKKPTGGIVTVR [FAS1] | 2.37 ± 0.053
KYKSGGKFSFSPLQKEE [SSN2] | 1.53 ± 0.047
KYKSNTNNMEKIIEDLR [SMC2] | 3.2 ± 0.034
KYLGLKPGSIDAISQVI [FAS1] | 3.01 ± 0.061

Sequence | protein stability index
KYVHVSEVGNCSGSGMG [FAS2] | 2.92 ± 0.041
LAFDKLNVPVFQIVIEP [ARP7] | 1.7 ± 0.056
LAKERQKLWLLECQLFP [SSN8] | 2.05 ± 0.047
LAKKWFLQHPDEEYPVK [PRP8] | 2.89 ± 0.16
LAKPVFHVGFIAKIKKV [RPO21] | 2.02 ± 0.06
LALALGILYMGQGEQVD [RPN1] | 1.23 ± 0.11
LALGSHNKLIQFGNACI [SSN2] | 1.28 ± 0.089
LANEERLSNEMHALKNR [RGR1] | 3.66 ± 0.13
LANRSKENFILDSLMKT [YJL039C/NUP192] | 2.69 ± 0.069
LARRTDAPFNKVVLKAL [RPL18A] | 1.45 ± 0.068
LASKIKQYERLRFYKDT [RRI1] | 2.19 ± 0.08
LASRNKWDDLNEQLTLL [RPN5] | 3.12 ± 0.047
LAVEDKPSPIDSGIGSN [CSL4] | 3.08 ± 0.044
LAVKVHGGSRYATKDGV [QCR2] | 1.07 ± 0.089
LAVSTILGKNFDSVIVE [SMC1] | 2.45 ± 0.047
LCHPKKEKYGLAVSTIL [SMC1] | 2.15 ± 0.048
LCLMTWKEVMFDPSKDV [CDC53] | 3.09 ± 0.073
LCQKSPVMADLNGGLQF [FAS2] | 2.53 ± 0.2
LCRNPLTSGLLYSYLIK [YJL039C/NUP192] | 1.53 ± 0.036
LDALVDCENFFNYVQEC [YJL039C/NUP192] | 3.41 ± 0.065
LDDEKIFSQTTNSTYNP [YJL039C/NUP192] | 3.08 ± 0.045
LDDLQVILAKNENETRD [PGD1] | 3.38 ± 0.078
LDEDDTNDGIERYSDKY [RPC31] | 3.26 ± 0.074
LDERGHEKIEDEDEDND [RPN4] | 3.32 ± 0.17
LDGELDFDDFLKLGLVE [RET1] | 2.56 ± 0.17
LDGVSYLHQNWVLHRDL [SSN3] | 2.24 ± 0.087

Sequence | protein stability index
LDKDRKALIQRKGGKLE [RPL26A] | 2.97 ± 0.14
LDKLNCAINSKSRGSDL [RRP6] | 2.94 ± 0.032
LDLAGPLLAQLFKTLFK [RPB2] | 1.18 ± 0.031
LDNMTYSSVAGTVSRVN [RRP4] | 2.21 ± 0.036
LDPLARVSKDKKSGSLT [FAS2] | 3.14 ± 0.16
LDPLTKDPVDFVRQAAM [RPN2] | 2.85 ± 0.25
LDPYERAIYSYLSGAIP [YDL116W/NUP84] | 3.11 ± 0.13
LDSGDDQPQSSEAKRTK [BRR2] | 3.25 ± 0.043
LDSTGFDSTAFNATVDE [MED2] | 3.07 ± 0.038
LDTQLNDLRVSLNEKNA [SMC1] | 3.14 ± 0.09
LDVTKEAQANLLTAKHG [RPO21] | 3.18 ± 0.19
LDYQETYVEELFPIVKK [YJL039C/NUP192] | 2.75 ± 0.062
LDYQIGNSESKVEKGVN [LIN1] | 3.38 ± 0.13
LEAARSEKQNDEEAAGA [PRP8] | 2.32 ± 0.078
LEAPVKSIENPTQTKGN [YLR335W/NUP2] | 2.95 ± 0.058
LEDPYKYHYKEEWLNTK [CSN9] | 3.09 ± 0.072
LEDYVPHQSPDATRVFV [RPB2] | 3.07 ± 0.04
LEEIRGNPLSIGTLEEI [RPT2] | 3.25 ± 0.17
LEGEEIKSEEKKGKSSD [RPN1] | 2.4 ± 0.043
LEKERSILDDIKLSLKD [SMC4] | 2.91 ± 0.11
LENSSRSPRVVTNALDN [NUT1] | 2.74 ± 0.057
LEQLAQHTTESDNISRK [RPB2] | 3.11 ± 0.13
LERVKANAAKRAEAKAQ [RPL21A] | 3.14 ± 0.11
LESEAQKKATMSAEEAL [RPC34] | 3.58 ± 0.12
LESINEGNQIIVFVHSR [BRR2] | 1.76 ± 0.071
